In patent US20140120109A1 one finds MFI data, which are given here for one substance.

The target in assay [1] is full length human TL1A expressed on HEK293 cells (human) (UniProt O95150). Briefly: flow, HEK293/hTL1A, isotype control 1 ug/ml in place of anti-hTL1A (background; same value as r16c2, printed under column 1725P).
For assay [2] the target is unchanged. Briefly: flow, HEK293/hTL1A, isotype control 1 ug/ml in place of anti-hTL1A (background; same value as r16c2, printed under column 1742P).
The target is the same in assay [3]. Put plainly: flow, HEK293/hTL1A, isotype control 1 ug/ml in place of anti-hTL1A (background; same value as r16c2, printed under column 1817N).
Assay [4] has the same target. Put plainly: flow, HEK293/hTL1A, isotype control in place of anti-hTL1A (background; columns c2-c7).
The target is the same in assay [5]. Put plainly: flow, HEK293/hTL1A, isotype control 1 ug/ml in place of anti-hTL1A (background; same value as r16c2, printed under column 1805N).
For assay [6] the target is unchanged. Briefly: flow, HEK293/hTL1A, isotype control 1 ug/ml in place of anti-hTL1A (background; same value as r16c2, printed under column 1804N).
Assay [7] has the same target. Briefly: flow, HEK293/hTL1A, isotype control in place of anti-hTL1A (background; columns c8-c9).
Assay [8] shares this target. Briefly: flow, HEK293/hTL1A, isotype control 1 ug/ml in place of anti-hTL1A (background; same value as r16c8, printed under column 1745P).

Chain of full length human TL1A expressed on HEK293 cells (human) (O95150 whole entry): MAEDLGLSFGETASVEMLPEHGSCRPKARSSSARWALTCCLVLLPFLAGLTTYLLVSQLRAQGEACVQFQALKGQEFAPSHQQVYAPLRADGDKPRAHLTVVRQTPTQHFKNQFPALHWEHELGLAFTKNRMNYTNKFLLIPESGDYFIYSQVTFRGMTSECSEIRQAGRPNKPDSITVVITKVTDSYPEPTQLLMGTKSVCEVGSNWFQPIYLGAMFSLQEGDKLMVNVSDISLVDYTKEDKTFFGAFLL

For the substance “negative isotype control antibody (human IgG4)”, the MFI in assay [1], in assay [2], in assay [3], in assay [4], in assay [5] and in assay [6] was 27.5 each time. In addition, the MFI in assay [7] and in assay [8] was 17.9 each time.
